Results published in paper PMC8301994, “Kinetic Constraints in the Specific Interaction between Phosphorylated Ubiquitin and Proteasomal Shuttle Factors” (Biomolecules, 2021).
Each block holds one binder with its values, some of them ahead of it.

Experiments:
Conditions in all cases: both partners purified
[1] = molecular target: T1, Human ubiquitin (unmodified) (human, UniProt P0CG48 1-76); experiment: NMR titration; 1H-15N HSQC; 100 uM 15N-labeled Ub or pUb titrated with unlabeled UBA (22.7 to 340.4 uM); 20 mM HEPES, 150 mM NaCl, pH 7.4, 25 C; CSPs of pUb fitted with the revised model of coupled pUbRL/pUbRT equilibria (KD is for pUbRL), CSPs of Ub with a simple one-site model
T1 construct: ubiquitin, human; the cut product of the ubiquitin precursor; cloned into pET11a; 15N-labelled in the NMR titrations; also called unmodified Ub; source: E. coli BL21 star, purified (Sepharose SP, Sephacryl S100)

[2] = molecular target: T2, S65-phosphorylated ubiquitin (human, UniProt P0CG48 1-76, phosphoserine at 65); experiment: as above
T2 construct: ubiquitin, human; the cut product of the ubiquitin precursor; phosphorylated at S65 by PINK1; One chemical species that exchanges slowly between two conformations, pUbRL and pUbRT; The printed KD, kon and koff are defined for the pUbRL state; 15N-labelled or unlabelled, depending on the experiment; also called pUb; pUbRL (C-terminally relaxed conformation); source: E. coli BL21 star, purified; …

[3] = molecular target: T2, S65-phosphorylated ubiquitin; experiment: NMR CPMG relaxation dispersion; 15N-labeled Ubqln2-UBA 300 uM with 32 uM unlabeled pUb (~10% saturation); 20 mM HEPES, 150 mM NaCl, pH 7.4; two magnetic fields, global fit; kon and koff calculated from kex and the KD
[4] = molecular target: T2, S65-phosphorylated ubiquitin; experiment: NMR CPMG relaxation dispersion; 15N-labeled Ubqln2-UBA 300 uM with 228 uM unlabeled pUb (~50% saturation); 20 mM HEPES, 150 mM NaCl, pH 7.4; two magnetic fields, global fit; kon and koff calculated from kex and the KD

Kd [1]: 356 ± 56 µM
Kd [2]: 404 ± 38.8 µM
B1: Human Rad23A-UBA2 (residues 315 to 363) (domain or fragment)
chain: not shown
notes: UV excision repair protein Rad23A, human, second UBA domain (UBA2), residues 315 to 363; synthetic gene with optimized codons in pET11a; 15N-labelled in the CPMG experiment; also called Rad23-UBA2; second UBA domain (UBA2) from Rad23A; source: E. coli BL21 (DE3), purified (Ni-NTA, Sephacryl S100; TEV cleavage, second Ni-NTA, Sephacryl S100); not shown: thioredoxin, N-terminal, cleaved; His6, …

koff [3]: 293 ± 27.5 s⁻¹
kon [3]: 6.8e+06 ± 600000 M⁻¹ s⁻¹
koff [4]: 678 ± 61 s⁻¹
kon [4]: 1.56e+07 ± 1.4e+06 M⁻¹ s⁻¹
Kd [1]: 33 ± 3.7 µM
Kd [2]: 43.3 ± 3.6 µM
B2: Human Ubqln2-UBA (residues 578 to 621) (domain or fragment, UniProt Q9UHD9 578-621, looked up)
chain: PEVRFQQQLEQLNAMGFLNREANLQALIATGGDINAAIERLLGS
notes: Ubiquilin-2 (Ubqln2), human, UBA domain, residues 578 to 621; synthetic gene with optimized codons in pET11a; 15N- or 15N/13C-labelled in some experiments; also called UBA domain from Ubqln2; Ubiqulin-2 UBA; source: E. coli BL21 (DE3), purified (Ni-NTA, Sephacryl S100; TEV cleavage, second Ni-NTA, Sephacryl S100); not shown: thioredoxin, N-terminal, cleaved; His6, N-terminal, cleaved
